{"source": "paper PMC5374107", "binders": {"B1": {"name": "Recombinant His-tagged EPCR (receptor)", "chain": "SQDASDGLQRLHMLQISYFRDPYHVWYQGNASLGGHLTHVLEGPDTNTTIIQLQPLQEPESWARTQSGLQSYLLQFHGLVRLVHQERTLAFPLTIRCFLGCELPPEGSRAHVFFEVAVNGSSFVSFRPERALWQADTQVTSGVVTFTLQQLNAYNRTRYELREFLEDTCVQYVQKHISAENTKGSQTSRSYTSLVLGVLVGSFIIAGVAVGIFLCTGGRRC", "modifications": "biotin (biotinylated by BirA)"}}, "biological_target": "ICAM-1D1D5-Fc::PFD1235w head structure complex (human | Plasmodium falciparum)", "experiment": "SPR; Biacore T-200; dual binding: ICAM-1D1D5 Fc immobilized (1,800, 2,100 or 1,500 RU) on Protein A CM5 chip, head structure injected at 250 nM for 240 s, then EPCR injected, two-fold dilutions 250 nM to 16 nM, 30 µL/min, 240 s association, 720 s dissociation; 10 mM HEPES pH 8.0, 300 mM NaCl, 0.05% Tween-20; one-site kinetic model"}
{"binder": "B1", "values": [{"measurement": "Kd", "result": 271, "unit": "nM"}, {"measurement": "koff", "result": 0.00103, "unit": "s⁻¹"}, {"measurement": "kon", "result": 3600, "unit": "M⁻¹ s⁻¹"}]}
